Measurements reported in patent US20240009242A1 (STARKAGE THERAPEUTICS, published 2024).
Ends that are not written are not given here.

Experiments:
hDEP1 Peptide #1 = molecular target: T1, hDEP1 Peptide #1 (human, also: conjugated to BSA); assay: indirect ELISA, purified soluble scFv
T1 peptide: AGGTPSPIPDPSV

hDEP1 Peptide #2 = molecular target: T2, hDEP1 Peptide #2 (human, also: conjugated to BSA); assay: indirect ELISA, purified soluble scFv
T2 peptide: PVLGDIEGTPGFLQVHT

hDEP1 Peptide #3 = molecular target: T3, hDEP1 Peptide #3 (human, also: conjugated to BSA); assay: indirect ELISA, purified soluble scFv
T3 peptide: EVVPKEPALVLKWT

hDEP1-ECD-His = molecular target: T4, hDEP1-ECD-His (human, UniProt Q12913 621-969); assay: indirect ELISA, purified soluble scFv
T4 construct: Produced in CHO cells, purified on Ni-NTA; also called recombinant protein hDEP1-ECD-His
T4 sequence: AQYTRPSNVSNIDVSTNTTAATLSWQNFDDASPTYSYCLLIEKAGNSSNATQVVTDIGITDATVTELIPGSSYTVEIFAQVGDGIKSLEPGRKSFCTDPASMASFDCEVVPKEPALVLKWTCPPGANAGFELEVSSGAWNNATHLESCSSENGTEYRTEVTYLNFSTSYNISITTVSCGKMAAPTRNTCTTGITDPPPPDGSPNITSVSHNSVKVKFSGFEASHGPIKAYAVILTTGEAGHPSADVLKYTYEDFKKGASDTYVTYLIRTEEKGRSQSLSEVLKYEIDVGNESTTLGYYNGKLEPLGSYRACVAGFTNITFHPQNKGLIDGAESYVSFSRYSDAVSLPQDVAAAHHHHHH

[1] = molecular target: T5, murine counterpart of hDEP1-ECD-His (murine, UniProt Q64455 524-870); assay: indirect ELISA, purified soluble scFv
T5 construct: also called mDEP1
T5 sequence: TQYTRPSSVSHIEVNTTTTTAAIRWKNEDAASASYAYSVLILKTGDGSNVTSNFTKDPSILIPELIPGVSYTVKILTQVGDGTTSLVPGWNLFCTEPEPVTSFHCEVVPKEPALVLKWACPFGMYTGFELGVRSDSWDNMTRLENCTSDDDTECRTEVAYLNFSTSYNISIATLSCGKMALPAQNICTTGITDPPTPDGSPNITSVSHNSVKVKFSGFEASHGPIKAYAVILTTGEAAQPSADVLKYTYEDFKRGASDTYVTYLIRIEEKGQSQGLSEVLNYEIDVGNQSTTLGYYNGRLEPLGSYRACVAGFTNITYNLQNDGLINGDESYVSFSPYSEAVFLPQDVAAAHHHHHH

BSA = molecular target: T6, BSA (UniProt P02769 25-607); assay: indirect ELISA, purified soluble scFv
T6 construct: Negative control antigen in the ELISAs; also called negative control (BSA only)
T6 sequence (P02769 25-607 limits assumed): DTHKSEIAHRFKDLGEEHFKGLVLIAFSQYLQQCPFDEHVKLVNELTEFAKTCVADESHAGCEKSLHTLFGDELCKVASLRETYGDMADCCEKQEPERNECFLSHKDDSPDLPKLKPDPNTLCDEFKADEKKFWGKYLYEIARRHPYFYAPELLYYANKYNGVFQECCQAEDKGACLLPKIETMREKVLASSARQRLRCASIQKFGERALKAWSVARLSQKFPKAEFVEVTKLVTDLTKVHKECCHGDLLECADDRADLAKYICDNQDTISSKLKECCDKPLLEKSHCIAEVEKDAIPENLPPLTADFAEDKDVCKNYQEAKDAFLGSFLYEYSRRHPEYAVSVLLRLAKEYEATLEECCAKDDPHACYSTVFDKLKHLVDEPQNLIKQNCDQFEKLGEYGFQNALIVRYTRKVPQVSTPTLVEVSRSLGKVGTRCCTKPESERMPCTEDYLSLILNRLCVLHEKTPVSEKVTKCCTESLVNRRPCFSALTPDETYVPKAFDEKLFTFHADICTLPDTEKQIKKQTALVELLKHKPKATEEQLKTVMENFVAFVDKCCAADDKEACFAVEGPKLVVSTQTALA

hDEP1 Peptide #4 [2] = molecular target: T7, hDEP1 Peptide #4 (human, also: conjugated to BSA); assay: ELISA, soluble scFv produced in microtiter plate
T7 construct: also called hDEP1 Peptide #4/BSA
T7 peptide: ADVLKYTYEDFKKGASDT
Description: 96 isolated clones from the second, third and fourth rounds of panning were hand-picked and used to produce the respective soluble scFv in microtiter plate. Each clone was then tested in ELISA against hDEP1 Peptide #4/BSA.

hDEP1 Peptide #4 [3] = molecular target: T7, hDEP1 Peptide #4; assay: indirect ELISA, purified soluble scFv

Row | binding result (hDEP1 Peptide #1) | binding result (hDEP1 Peptide #2) | binding result (hDEP1 Peptide #3) | binding result (hDEP1-ECD-His) | binding result [1] | binding result (BSA) | binding result (hDEP1 Peptide #4 [2]) | binding result (hDEP1 Peptide #4 [3]) | Binder
1 | no binding | no binding | no binding | binds | no binding | no binding | binds |  | 5738-10-R4A-G12 (scFv, V domains shown, anti-hDEP1 scFv, rat 10 library, format VH/VL-6xHis-Flag) VH: QVQLKESGAELAKPGSSVKISCKASGYTFTSDSISWIKQTTGQGLEYIGYIHPGSGVTNYNEKFKGKATLTVDKSSSTAFMQLSSLTPDDSAIYYCARYFDYWGQGVMVTVSS VL: DILMTQSPSSMSVSLGDTVTITCRASQDVGIYVNWFQQKPGKSPRRMIYRATNLADGVPSRFSGSRSGSDYSLTISSLESEDVADYHCLQYDEYPPTFGGGTKLELK
2 | no binding | no binding | no binding |  | no binding | no binding |  | no binding | 5738-13-R4A-D11 (scFv, V domains shown, anti-hDEP1 scFv, rat 13 library, format VH/VL-6xHis-Flag) VH: QVQLKESGGGLVQPGRSLKLSCAASGFSFGDYNMAWVRQAPKKGLEWVATISYDDYRTYYRDSVKGRFTISRDDAKATLYLQMDSLRSEDTATYYCARQGGIIRGVWFPYWGQGTLVTVSS VL: DIQMTQTPASLSASLEEIVTITCQASQDIGNWLAWYQQKPGKSPHLLIYGATTLADGVPSRFSGSRSGTQYSLKISRLQAEDIGIYYCQQASSAPWTFGGGTKLELK
